The source of these data is FireProtDB.

Where “and” joins values, the source holds several entries; their conditions need not be identical. Equal entries are not always repeated.

The conditions of the data set: whole UniProt chain shown.
The mark [1] stands for this setting: Homo sapiens, pH 7.4, 25 °C, Urea, CD, transition: 2, reversible: yes.
The mark [2] stands for this setting: Homo sapiens, pH 7.4, 25 °C, Urea, absorbance, transition: 2, reversible: yes.
[3] abbreviates: Homo sapiens, pH 7.4, 25 °C, Urea, fluorescence, transition: 2, reversible: yes.
[4] abbreviates: Homo sapiens, pH 7.5, 23 °C, GdnHCl, Fluorescence, Tris-HCl 50 mM, reversible: yes.
The mark [5] stands for this setting: Homo sapiens, pH 6.2, 25 °C, 2-Propanol, CD, Piperazine Unknown, NaCl 30 mM, transition: 2, reversible: Yes.
[6] abbreviates: Locusta migratoria, pH 7, 25 °C, GdnHCl, CD, Sodium phosphate 50 mM, KCl 100 mM, reversible: yes.
Where [7] appears, read: Locusta migratoria, pH 3, 20 °C, Thermal, NMR, Unknown.
Where [8] appears, read: Homo sapiens, pH 5.2, 20 °C, GdnHCl, CD, Sodium acetate 20 mM, reversible: yes.

B1: Peroxiredoxin-6 wild type, P30041 (protein)
chain: MPGGLLLGDVAPNFEANTTVGRIRFHDFLGDSWGILFSHPRDFTPVCTTELGRAAKLAPEFAKRNVKLIALSIDSVEDHLAWSKDINAYNCEEPTEKLPFPIIDDRNRELAILLGMLDPAEKDEKGMPVTARVVFVFGPDKKLKLSILYPATTGRNFDEILRVVISLQLTAEKRVATPVDWKDGDSVMVLPTIPEEEAKKLFPKGVFTKELPSGKKYLRYTPQP
As for B1, under setting [1], the denaturant m value worked out at 1.02 kcal/mol/M, the “denaturant midpoint (higher = more stable)” value (“denaturant midpoint” below) is 3.02 M and the unfolding free energy amounted to 13.3 kJ/mol. Under setting [2], the denaturant m value was 1.03 kcal/mol/M, the “denaturant midpoint” value was 2.71 M and the unfolding free energy amounted to 11.8 kJ/mol. Further, under setting [3], the denaturant m value was 1.04 kcal/mol/M, the “denaturant midpoint” value was 2.74 M and the unfolding free energy amounted to 12 kJ/mol.

B2: Tissue factor wild type, P13726 (protein)
chain: METPAWPRVPRPETAVARTLLLGWVFAQVAGASGTTNTVAAYNLTWKSTNFKTILEWEPKPVNQVYTVQISTKSGDWKSKCFYTTDTECDLTDEIVKDVKQTYLARVFSYPAGNVESTGSAGEPLYENSPEFTPYLETNLGQPTIQSFEQVGTKVNVTVEDERTLVRRNNTFLSLRDVFGKDLIYTLYYWKSSSSGKKTAKTNTNEFLIDVDKGENYCFSVQAVIPSRTVNRKSTDSPVECMGQEKGEFREIFYIIGAVVFVVIILVIILAISLHKCRKAGVGQSWKENSPLNVS
Turning to B2, under setting [4], the “denaturant midpoint” value was determined as 1.35 M and the unfolding free energy came to 26.4 kJ/mol.

B3: Endo-1,4-beta-xylanase 2 wild type, P36217 (protein)
chain: MVSFTSLLAGVAAISGVLAAPAAEVESVAVEKRQTIQPGTGYNNGYFYSYWNDGHGGVTYTNGPGGQFSVNWSNSGNFVGGKGWQPGTKNKVINFSGSYNPNGNSYLSVYGWSRNPLIEYYIVENFGTYNPSTGATKLGEVTSDGSVYDIYRTQRVNQPSIIGTATFYQYWSVRRNHRSSGSVNTANHFNAWAQQGLTLGTMDYQIVAVEGYFSSGSASITVS
Consider B3, for which, where the note is “Hypocrea jecorina (strain ATCC 56765 / BCRC 32924 / NRRL 11460 / Rut C-30), pH 5, Thermal, DSC, citrate - phosphate buffer 50 mM”, the Tm (in general, the temperature at which the thermal transition is half complete) turned out to be 61.4 °C.

B4: Glycodelin wild type, P09466 (protein)
chain: MLCLLLTLGVALVCGVPAMDIPQTKQDLELPKLAGTWHSMAMATNNISLMATLKAPLRVHITSLLPTPEDNLEIVLHRWENNSCVEKKVLGEKTENPKKFKINYTVANEATLLDTDYDNFLFLCLQDTTTPIQSMMCQYLARVLVEDDEIMQGFIRAFRPLPRHLWYLLDLKQMEEPCRF
With B4, under setting [5], the denaturant m value is 1.5 kcal/mol/M, the “denaturant midpoint” value turned out to be 3.5 M and the unfolding free energy is 22.6 kJ/mol.

B5: Cytochrome b5 type B wild type, O43169 (protein)
chain: MSGSMATAEASGSDGKGQEVETSVTYYRLEEVAKRNSLKELWLVIHGRVYDVTRFLNEHPGGEEVLLEQAGVDASESFEDVGHSSDAREMLKQYYIGDIHPSDLKPESGSKDPSKNDTCKSCWAYWILPIIGAVLLGFLYRYYTSESKSS
On to B5, for which the “denaturant midpoint” value (Homo sapiens, pH 7, 25 °C, GdmSCN, UV/visible spectrophotometer, MOPS 30mM) was 1.86 M. Also, for the setting “Homo sapiens, pH 7, Thermal, UV/visible spectrophotometer, Potassium phosphate 50mM”, the Tm was 85.7 °C.

B6: wild type, Q96HL2 (protein)
chain: MTKLRAQQCRFWTSFFPKVLEMTGNIDEAEWEWKAGFHRWNNYMMDWKNQFNDYTSKKESCVGL
As for B6, the Tm (Homo sapiens, pH 8, Thermal, DSC, sodium phosphate 50 mM) amounted to 62.8 °C.

B7: Apolipophorin-3b wild type, P10762 (protein)
chain: MNTLLAVLMLAVAAQARPDAAGHVNIAEAVQQLNHTIVNAAHELHETLGLPTPDEALNLLTEQANAFKTKIAEVTTSLKQEAEKHQGSVAEQLNRFARNLNNSIHDAATSAQPADQLNSLQSALTNVGHQWQTSQPRPSVAQEAWAPVQSALQEAAEKTKEAAANLQNSIQSAVQKPAN
As for B7, under setting [6], the denaturant m value is 3.46 kcal/mol/M and 4.33 kcal/mol/M; the “denaturant midpoint” value is 0.6 M and 0.27 M.

B8: Protease inhibitors wild type, P80060 (protein)
chain: MKFALALCAAVLLVVLVQAEEKCTPGQVKQQDCNTCTCTPTGVWGCTRKGCQPAKREISCEPGKTFKDKCNTCRCGADGKSAACTLKACPNQ
As to B8, under setting [7], the “unfolding enthalpy (van 't Hoff)” value was determined as 80.8 kJ/mol and the unfolding free energy stood at 4.6 kJ/mol.

B9: SNARE-associated protein Snapin wild type, O95295 (protein)
chain: MAGAGSAAVSGAGTPVAGPTGRDLFAEGLLEFLRPAVQQLDSHVHAVRESQVELREQIDNLATELCRINEDQKVALDLDPYVKKLLNARRRVVLVNNILQNAQERLRRLNHSVAKETARRRAMLDSGIYPPGSPGK
For B9, for the setting “Homo sapiens, pH 7.4, Thermal, CD, Tris 50 mM”, the Tm was 57.9 °C.

B10: Lysozyme C wild type, P61626 (protein)
chain: MKALIVLGLVLLSVTVQGKVFERCELARTLKRLGMDGYRGISLANWMCLAKWESGYNTRATNYNAGDRSTDYGIFQINSRYWCNDGKTPGAVNACHLSCSALLQDNIADAVACAKRVVRDPQGIRAWVAWRNRCQNRDVRQYVQGCGV
As for B10, the unfolding free energy (Homo sapiens, pH 3, 10 °C, GdnHCl, Fluorescence, glycine-HCl 40 mM, reversible: yes) worked out at 49.4 kJ/mol. The unfolding free energy (Homo sapiens, pH 4, 10 °C, GdnHCl, CD, glycine-HCl 40 mM, reversible: yes) was 58.6 kJ/mol. For the same protein, under setting [8], the denaturant m value was 3.6 kcal/mol/M, the “denaturant midpoint” value came out at 4.12 M and the unfolding free energy was found to be 61.5 kJ/mol.

B11: Thymidylate synthase wild type, P00469 (protein)
chain: MLEQPYLDLAKKVLDEGHFKPDRTHTGTYSIFGHQMRFDLSKGFPLLTTKKVPFGLIKSELLWFLHGDTNIRFLLQHRNHIWDEWAFEKWVKSDEYHGPDMTDFGHRSQKDPEFAAVYHEEMAKFDDRVLHDDAFAAKYGDLGLVYGSQWRAWHTSKGDTIDQLGDVIEQIKTHPYSRRLIVSAWNPEDVPTMALPPCHTLYQFYVNDGKLSLQLYQRSADIFLGVPFNIASYALLTHLVAHECGLEVGEFIHTFGDAHLYVNHLDQIKEQLSRTPRPAPTLQLNPDKHDIFDFDMKDIKLLNYDPYPAIKAPVAV
For B11, the unfolding free energy (Lacticaseibacillus casei, pH 7, 4 °C, Urea, CD, KHPO4 20 mM, KCl 0.5 M, reversible: yes) amounted to 79.9 kJ/mol.
